Measured values from the Immune Epitope Database (IEDB).

Experiments:
Assay in all cases: IEDB peptide-MHC binding, purified MHC/competitive/radioactivity; filed as Kd, often an IC50 or EC50 that approximates it; ≥ and ≤ were set here for values at or beyond the usual limits of such assays
HLA-A*11:01 = biological target: HLA-A*11:01
HLA-A*31:01 = biological target: HLA-A*31:01
HLA-A*68:01 = biological target: HLA-A*68:01
HLA-A*33:01 = biological target: HLA-A*33:01
HLA-A*03:01 = biological target: HLA-A*03:01
HLA-A*02:06 = biological target: HLA-A*02:06
HLA-A*02:02 = biological target: HLA-A*02:02
HLA-A*02:03 = biological target: HLA-A*02:03
[1] = source organism: Vaccinia virus WR
[2] = source organism: SARS coronavirus Tor2
[3] = source organism: Dengue virus 2 Jamaica/1409/1983
[4] = source organism: Lassa virus Josiah
[5] = source organism: Mammarenavirus caliense
[6] = source organism: Mammarenavirus machupoense

SITPNNLNK
Kd (HLA-A*11:01; [1]): 0.0254 µM
Kd (HLA-A*31:01; [1]): ≥ 77.9 µM
Kd (HLA-A*68:01; [1]): 1.45 µM
Kd (HLA-A*33:01; [1]): ≥ 77.7 µM
Kd (HLA-A*03:01; [1]): 0.866 µM

SLKRFTHTT
Kd (HLA-A*02:06; [1]): ≥ 60.1 µM
Kd (HLA-A*02:02; [1]): 0.825 µM
Kd (HLA-A*02:03; [1]): 0.00905 µM

SLLRSTSQK
Kd (HLA-A*11:01; [2]): 0.0128 µM
Kd (HLA-A*31:01; [2]): 0.802 µM
Kd (HLA-A*68:01; [2]): 3.04 µM
Kd (HLA-A*33:01; [2]): 14.7 µM
Kd (HLA-A*03:01; [2]): 0.00256 µM

SMFEPEREKV
Kd (HLA-A*02:03; [3]): 0.14 µM

SQFSYKELYV
Kd (HLA-A*02:06; [1]): 0.0714 µM
Kd (HLA-A*02:02; [1]): 0.0141 µM
Kd (HLA-A*02:03; [1]): 0.0272 µM

SSFIVPEFAK
Kd (HLA-A*11:01; [1]): 0.000534 µM
Kd (HLA-A*31:01; [1]): 9.4 µM
Kd (HLA-A*68:01; [1]): 0.00223 µM
Kd (HLA-A*33:01; [1]): 9.27 µM
Kd (HLA-A*03:01; [1]): 0.0374 µM

SSYIDFENTK
Kd (HLA-A*11:01; [1]): 0.000158 µM
Kd (HLA-A*31:01; [1]): 0.137 µM
Kd (HLA-A*68:01; [1]): 0.0235 µM
Kd (HLA-A*33:01; [1]): 0.392 µM
Kd (HLA-A*03:01; [1]): 0.629 µM

STISWMMKL
Kd (HLA-A*02:06; [1]): 0.0121 µM
Kd (HLA-A*02:02; [1]): 0.0922 µM
Kd (HLA-A*02:03; [1]): 0.0228 µM

SVLNDILSR
Kd (HLA-A*11:01; [2]): 0.148 µM
Kd (HLA-A*31:01; [2]): 1.14 µM
Kd (HLA-A*68:01; [2]): 4.27 µM
Kd (HLA-A*33:01; [2]): 5.66 µM
Kd (HLA-A*03:01; [2]): 7.79 µM

SVLRAVLPR
Kd (HLA-A*11:01; [4]): 0.00896 µM
Kd (HLA-A*31:01; [4]): 0.0106 µM
Kd (HLA-A*68:01; [4]): 0.0667 µM
Kd (HLA-A*33:01; [4]): 0.537 µM
Kd (HLA-A*03:01; [4]): 0.208 µM

TAFFNTCKPT
Kd (HLA-A*02:06; [1]): ≥ 33 µM
Kd (HLA-A*02:02; [1]): ≥ 31.6 µM
Kd (HLA-A*02:03; [1]): ≥ 22.3 µM

TIKESLLKET
Kd (HLA-A*02:06; [1]): 0.0872 µM
Kd (HLA-A*02:02; [1]): 1.58 µM
Kd (HLA-A*02:03; [1]): 0.149 µM

TLISSDGAR
Kd (HLA-A*11:01; [1]): 1.4 µM
Kd (HLA-A*31:01; [1]): 0.0803 µM
Kd (HLA-A*68:01; [1]): 0.00513 µM
Kd (HLA-A*33:01; [1]): 0.198 µM
Kd (HLA-A*03:01; [1]): 4.09 µM

TLLNETAKV
Kd (HLA-A*02:06; [1]): 0.0111 µM
Kd (HLA-A*02:02; [1]): 0.246 µM
Kd (HLA-A*02:03; [1]): 0.0831 µM

TLSERISSK
Kd (HLA-A*11:01; [1]): 0.00291 µM
Kd (HLA-A*31:01; [1]): 2.31 µM
Kd (HLA-A*68:01; [1]): 0.0483 µM
Kd (HLA-A*33:01; [1]): 9.91 µM
Kd (HLA-A*03:01; [1]): 0.00616 µM

TQVKELGIA
Kd (HLA-A*02:06; [1]): 0.0556 µM
Kd (HLA-A*02:02; [1]): 7.22 µM
Kd (HLA-A*02:03; [1]): 0.0522 µM

TSEKYSKGY
Kd (HLA-A*11:01; [1]): ≥ 77.9 µM
Kd (HLA-A*31:01; [1]): ≥ 77.9 µM
Kd (HLA-A*68:01; [1]): ≥ 77.7 µM
Kd (HLA-A*33:01; [1]): ≥ 77.7 µM
Kd (HLA-A*03:01; [1]): ≥ 78 µM

TSVSAKQLR
Kd (HLA-A*11:01; [1]): 2.81 µM
Kd (HLA-A*31:01; [1]): 2.6 µM
Kd (HLA-A*68:01; [1]): 0.0112 µM
Kd (HLA-A*33:01; [1]): 9.11 µM
Kd (HLA-A*03:01; [1]): ≥ 78 µM

TTENAAYQV
Kd (HLA-A*02:06; [1]): 0.442 µM
Kd (HLA-A*02:02; [1]): ≥ 77.8 µM
Kd (HLA-A*02:03; [1]): ≥ 51.3 µM

TTIKPVSYK
Kd (HLA-A*11:01; [2]): 0.000759 µM
Kd (HLA-A*31:01; [2]): 0.103 µM
Kd (HLA-A*68:01; [2]): 0.0015 µM
Kd (HLA-A*33:01; [2]): 0.144 µM
Kd (HLA-A*03:01; [2]): 0.00204 µM

TVDFTDCRT
Kd (HLA-A*02:06; [1]): 0.339 µM
Kd (HLA-A*02:02; [1]): 9.68 µM
Kd (HLA-A*02:03; [1]): ≥ 27 µM

VFAQVKQMYK
Kd (HLA-A*11:01; [2]): 0.0606 µM
Kd (HLA-A*31:01; [2]): 0.124 µM
Kd (HLA-A*68:01; [2]): 0.179 µM
Kd (HLA-A*33:01; [2]): 0.863 µM
Kd (HLA-A*03:01; [2]): 0.0665 µM

VFLILCFTIK
Kd (HLA-A*11:01; [2]): 0.371 µM
Kd (HLA-A*31:01; [2]): 0.613 µM
Kd (HLA-A*68:01; [2]): 0.965 µM
Kd (HLA-A*33:01; [2]): 4.07 µM
Kd (HLA-A*03:01; [2]): 0.168 µM

VISVIFYFI
Kd (HLA-A*02:06; [1]): 0.497 µM
Kd (HLA-A*02:02; [1]): 0.0014 µM
Kd (HLA-A*02:03; [1]): 0.729 µM

VLEKKVCAIT
Kd (HLA-A*02:06; [1]): 1.68 µM
Kd (HLA-A*02:02; [1]): 0.59 µM
Kd (HLA-A*02:03; [1]): 1.24 µM

VMKDGRVLV
Kd (HLA-A*02:03; [3]): 0.0507 µM

VSMMSMYGK
Kd (HLA-A*11:01; [1]): 0.00118 µM
Kd (HLA-A*31:01; [1]): 0.113 µM
Kd (HLA-A*68:01; [1]): 0.005 µM
Kd (HLA-A*33:01; [1]): ≥ 23.5 µM
Kd (HLA-A*03:01; [1]): 0.0152 µM

VSVDAMIHK
Kd (HLA-A*11:01; [1]): 0.00246 µM
Kd (HLA-A*31:01; [1]): 7.14 µM
Kd (HLA-A*68:01; [1]): 1.45 µM
Kd (HLA-A*33:01; [1]): ≥ 31.9 µM
Kd (HLA-A*03:01; [1]): 1.82 µM

VTDKTAYIGT
Kd (HLA-A*02:06; [1]): 0.227 µM
Kd (HLA-A*02:02; [1]): ≥ 21.8 µM
Kd (HLA-A*02:03; [1]): 4 µM

VVENPTIQK
Kd (HLA-A*11:01; [2]): 0.00763 µM
Kd (HLA-A*31:01; [2]): 18.7 µM
Kd (HLA-A*68:01; [2]): 0.407 µM
Kd (HLA-A*33:01; [2]): ≥ 64.1 µM
Kd (HLA-A*03:01; [2]): 0.328 µM

WLSYFVASFR
Kd (HLA-A*11:01; [2]): 0.0145 µM
Kd (HLA-A*31:01; [2]): 0.000461 µM
Kd (HLA-A*68:01; [2]): 0.000494 µM
Kd (HLA-A*33:01; [2]): 0.0134 µM
Kd (HLA-A*03:01; [2]): 0.0566 µM

WVMDTLNGI
Kd (HLA-A*02:06; [1]): 0.000731 µM
Kd (HLA-A*02:02; [1]): 0.00978 µM
Kd (HLA-A*02:03; [1]): 0.00101 µM

YLMCLSPLMA
Kd (HLA-A*02:06; [2]): 0.00129 µM
Kd (HLA-A*02:02; [2]): 0.000237 µM
Kd (HLA-A*02:03; [2]): 0.000127 µM

YMLFTKFFYL
Kd (HLA-A*02:06; [2]): 0.0203 µM
Kd (HLA-A*02:02; [2]): 0.0477 µM
Kd (HLA-A*02:03; [2]): 0.0458 µM

YNLSLSAAV
Kd (HLA-A*02:06; [5]): 1.66 µM
Kd (HLA-A*02:02; [5]): 0.867 µM
Kd (HLA-A*02:03; [5]): 1.14 µM

YSSMTSDSK
Kd (HLA-A*11:01; [1]): 0.0105 µM
Kd (HLA-A*31:01; [1]): 4.86 µM
Kd (HLA-A*68:01; [1]): 0.00238 µM
Kd (HLA-A*33:01; [1]): ≥ 21.4 µM
Kd (HLA-A*03:01; [1]): 1.98 µM

YVMNIERQDY
Kd (HLA-A*11:01; [1]): 19 µM
Kd (HLA-A*31:01; [1]): 10.2 µM
Kd (HLA-A*68:01; [1]): 0.189 µM
Kd (HLA-A*33:01; [1]): ≥ 23.3 µM
Kd (HLA-A*03:01; [1]): ≥ 70.1 µM

YVNHTLTGQH
Kd (HLA-A*11:01; [6]): ≥ 69.7 µM
Kd (HLA-A*31:01; [6]): ≥ 70 µM
Kd (HLA-A*68:01; [6]): ≥ 70.1 µM
Kd (HLA-A*33:01; [6]): 0.0295 µM
Kd (HLA-A*03:01; [6]): ≥ 70 µM
